Experimental data: US20240084003A1 (SIMCERE ZAIMING PHARMACEUTICAL, published 2024)

T1: monkey CD22 protein (ACROBiosystems, catalog number SI2-R52Ha) (monkey, UniProt F6W485 20-688)
T1 construct: commercial protein; also called monkey CD22-ECD; monkey CD22-ECD-His
T1 sequence: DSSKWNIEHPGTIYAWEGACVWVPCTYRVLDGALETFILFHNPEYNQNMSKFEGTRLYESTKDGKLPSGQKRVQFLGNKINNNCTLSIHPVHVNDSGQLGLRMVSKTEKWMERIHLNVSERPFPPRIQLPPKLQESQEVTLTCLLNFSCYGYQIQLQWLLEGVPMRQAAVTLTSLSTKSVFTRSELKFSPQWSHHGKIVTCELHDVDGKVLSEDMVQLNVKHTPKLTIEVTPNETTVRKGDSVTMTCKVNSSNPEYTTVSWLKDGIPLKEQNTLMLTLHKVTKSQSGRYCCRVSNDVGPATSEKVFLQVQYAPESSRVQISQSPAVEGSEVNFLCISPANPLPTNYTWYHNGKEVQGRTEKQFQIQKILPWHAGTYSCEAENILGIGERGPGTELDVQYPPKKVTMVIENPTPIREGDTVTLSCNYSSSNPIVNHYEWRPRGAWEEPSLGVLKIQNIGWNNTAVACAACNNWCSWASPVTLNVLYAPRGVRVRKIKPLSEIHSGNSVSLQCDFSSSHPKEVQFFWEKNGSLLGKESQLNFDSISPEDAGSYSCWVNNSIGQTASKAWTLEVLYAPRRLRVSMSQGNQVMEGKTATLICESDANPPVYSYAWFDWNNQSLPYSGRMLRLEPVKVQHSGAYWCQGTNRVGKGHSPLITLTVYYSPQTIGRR


How the values were obtained:
[1] = biological target: T1, monkey CD22 protein (ACROBiosystems, …); assay: ELISA, coated monkey CD22 protein, antibody 0.001 nM
How it was run: (§1)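 Plates were coated overnight at 4° C with 2 μg/mL CD22 protein in PBS and blocked with PBS + 2% BSA. Chimeric antibodies were incubated for 2 h at 37° C, then HRP-labelled secondary for 2 h at 37° C. Bound antibody was read by TMB colour development (30 min, RT) stopped with 1.0 N HCl.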

[2] = biological target: T1, monkey CD22 protein (ACROBiosystems, …); assay: ELISA, coated monkey CD22 protein, antibody 0.1 nM
How it was run: as §1

[3] = biological target: T2, CD22 on cynomolgus monkey peripheral blood B cells (cynomolgus monkey (Macaca fascicularis)); assay: FACS, cynomolgus PBMC, CD20+ B cells, antibody 100 nM
T2 construct: whole, on cells; also called cynomolgus monkey B cells
How it was run: (§2)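 Binding is expressed as the proportion of CD20-positive B cells that became APC-positive after indirect labelling. Cells were cyno PBMC exposed to the antibody for 1 h at RT, then to anti-human Fc secondary for 30 min.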

[4] = biological target: T1, monkey CD22 protein (ACROBiosystems, …); assay: ELISA, coated monkey CD22 protein, antibody 0.00001 nM
How it was run: as §1

[5] = biological target: T1, monkey CD22 protein (ACROBiosystems, …); assay: ELISA, coated monkey CD22 protein, antibody 0.01 nM
How it was run: as §1

[6] = biological target: T1, monkey CD22 protein (ACROBiosystems, …); assay: ELISA, coated monkey CD22 protein, antibody 0.0001 nM
How it was run: as §1

[7] = biological target: T1, monkey CD22 protein (ACROBiosystems, …); assay: ELISA, coated monkey CD22 protein, antibody 100 nM
How it was run: as §1

[8] = biological target: T2, CD22 on cynomolgus monkey peripheral …; assay: FACS, cynomolgus PBMC, CD20+ B cells, antibody 10 nM
How it was run: as §2

[9] = biological target: T1, monkey CD22 protein (ACROBiosystems, …); assay: ELISA, coated monkey CD22 protein, antibody 10 nM
How it was run: as §1

[10] = biological target: T2, CD22 on cynomolgus monkey peripheral …; assay: FACS, cynomolgus PBMC, CD20+ B cells, antibody 1 nM
How it was run: as §2

| OD450 [1] [OD450] | OD450 [2] [OD450] | Proportion of chimeric antibody positive cells to B cells (%) [3] [%] | OD450 [4] [OD450] | OD450 [5] [OD450] | OD450 [6] [OD450] | OD450 [7] [OD450] | Proportion of chimeric antibody positive cells to B cells (%) [8] [%] | OD450 [9] [OD450] | Proportion of chimeric antibody positive cells to B cells (%) [10] [%] | Binder |
| --- | --- | --- | --- | --- | --- | --- | --- | --- | --- | --- |
| 0.07 | 0.53 | 38 | 0.07 | 0.19 | 0.07 | 1.21 | 30 | 0.84 | 22 | F1.192.1 (antibody, human IgG1, kappa, V domains shown, human-murine chimeric IgG1 kappa) VH: AVQLQQSGVELVRPGASVKLSCTGSDFNIKEDYIHWVKQRPEQGLEWIGWIDPENGDTEYASKFQGKATITADTSSNTAYLQLSSLTSEDTAVYYCATYGSLDYWGQGTTLTVSS VL: DIKMTQSPSSMYAFLGERVTITCKASQGINSFLTWFQQKPGKSPKTLIYRANRLVDGVPSRFSGSGSGQDYSLTISSLEYEDVGIYYCLQYDEFPRTFGGGTKLEIKR |
| 0.06 | 0.06 | 17 | 0.06 | 0.06 | 0.06 | 0.08 | 17 | 0.06 | 16 | F1.245.2 (antibody, human IgG1, kappa, V domains shown, human-murine chimeric IgG1 kappa) VH: EVQLQQSGAELVKPGASVKLSCTGSGFNIKDYYIHWVKQRTEQGLEWMGRIDPEDGETEYAPKFQDEATITSDTSSNTAYLQLSSLTYEDTAVYYCAREAAGYFYRGSSYGYFDVWGTGTTVTVSS VL: DFQMTQTTSFLSASLGDRVTISCSASQDISNYLNWYQQKPDGTVKLLIYYTSSLHSGVPSRFSGSGSGTDYSLTISNLEPEDIATYYCQQYSMLPYTFGGGTKLEMER |
| 0.05 | 0.06 | 18 | 0.06 | 0.05 | 0.06 | 0.09 | 16 | 0.07 | 16 | F1.60.9 (antibody, human IgG1, kappa, V domains shown, human-murine chimeric IgG1 kappa) VH: QVQLKESGPGLVAPSQSLSITCTVSGLSLNNYGVSWVRQPPGKGLEWLGVIWGDGSTNYHSALISRLSISKDNSKSQVFLKLNSLHTDDTATYYCAINWGDYWGQGTTLIVSS VL: DIKMTQSPSSMNASLGERVTITCKASQDINSYLSWFQQKPGKSPKILIYRANRLIDGVPSRFSGSGSGQDYSLTISSLEYEDMGIYYCLQYGVFPLTFGAGTKLELKR |
| 0.82 | 2.78 | 34 | 0.09 | 2.47 | 0.18 | 3.21 | 31 | 2.93 | 30 | F1.172.13 (antibody, human IgG1, kappa, V domains shown, human-murine chimeric IgG1 kappa) VH: QVTLKESGPGILQSSQTLSLTCSFSGFSLSTSGMGVSWIRQPSGKGLEWLAHIYWDDDKRYNPSLKSRLTISKDTSRNQVFLKITSVDTADTATYYCARAPPPNWDEYYFDYWGQGTTLTVSS VL: DIQMTQSPASLSASVGETVTITCRASGNIHNSLAWYQQKQGKSPQLLVHNAKTLADGVPSRFSGSGSGTQYSLKINSLQPEDFGSYYCQHFWSTPPFGGGTKLEIKR |
| 0.91 | 2.24 | 34 | 0.09 | 2.04 | 0.21 | 1.94 | 25 | 2.15 | 22 | F1.216.2 (antibody, human IgG1, kappa, V domains shown, human-murine chimeric IgG1 kappa) VH: QVQLQQSGPEVVRPGASVKISCKASGYAFSSSWMNWMKQRPGKALEWIGRIYPGDGDTNYSGEFKVKATLTADKSSSTAYMQLSSLTSEDSAVYFCAREGSYYSNPWYFDYWGQGTTLTVSS VL: DVLVTQTPLSLPVSLGDQASISCRSSQSIVQSNGDTYLEWYLQKPGQSPKLLIYKVSNRFSGVPDRFSGSGSGTDFTLKISRVEAEDLGVYYCFQGSHVPFTFGSGTKLEIKR |
| 0.08 | 0.62 | 56 | 0.06 | 0.19 | 0.06 | 1.25 | 37 | 1.23 | 21 | F1.200.11 (antibody, human IgG1, kappa, V domains shown, human-murine chimeric IgG1 kappa) VH: QNQLVQSGPELKKPGETVKISCKASGYTFTTAGMQWVQKMPGKGFKWIGWINTLSGEPKYAEDFKGRFAFSLETSATTAYLQISNLKNEDTATYFCARAYYSNLYWYFDVWGTGTTVTVSS VL: DIVMTQSQKFMSTTVGDRVTITCKASQNVVTAVAWYQQKPGQSPKVLIYSASNRYSGVPDRFTGSGSGTDFTLTISNMHSEDLANYFCHQYSSYPFTFGSGTKLEIKR |
| 0.05 | 0.07 | 24 | 0.06 | 0.05 | 0.06 | 0.36 | 19 | 0.18 | 17 | F1.62.10 (antibody, human IgG1, kappa, V domains shown, human-murine chimeric IgG1 kappa) VH: QVQLQQSGPELVKPGASVKISCKASGYEFSSIWMNWVKQRPGEGLEWIGRIFPGDGEINYNEKFKGKATLTADRSSTTAYMQLSSLTSEDSAVYFCAGWRIYYGTYGAMDYWGQGTSVTVSS VL: DIQMTQITSSLSASLGDRVTISCRASQDIGNYLNWYQQKPDGTVKLLIYYTSRLHSGVPSRFSGSGSRTDYSLTISNLQQEDIATYFCQQGNTLPWTFGGGTKLEIKR |
| 0.05 | 0.06 | 34 | 0.06 | 0.05 | 0.06 | 0.18 | 20 | 0.07 | 17 | F1.257.3 (antibody, human IgG1, kappa, V domains shown, human-murine chimeric IgG1 kappa; VL name legible) VH: QVQLQQSGPELARPGASVKLSCKASGYTFTSYGISWVKQRTGQDLEWIGEIYPKLGTTYYNEKFKDKATLTTDRSSSTAYMALRSLTSEDSAVYFCACPHYYATRGGDYWGQGTTLTVSS VL: EIVLTQSPATLSVTPGDSVTFSCRASQSISNHLHWYQQKSHESPRLLIRYASQSISGIPSRFSGSGSGTDFTLSLSSVETEDFGVYFCQQSHSWPYTFGGGTKLEIAR |
| 0.51 | 1.99 | 68 | 0.07 | 1.75 | 0.13 | 1.91 | 62 | 2.16 | 60 | F1.17.1 (antibody, human IgG1, kappa, V domains shown, human-murine chimeric IgG1 kappa) VH: QVQLKESGPGLVAPSQSLSITCTVSGFSLSRYTVHWVRQPPGKGLEWLGMIWGGGSTDYNSALKSRLSISKDNSKSQVFLKMNSLQTDDTAMYYCARPHDFDAGGFAYWGQGTLVTVSA VL: QIVLTQSPAILSTSPGEKVTMTCSASSRVNYMYWYQQKPGSSPRLLIYDTSNLASGVPVRFSGSGSGTSYSLTISRMEAEDAATYYCQQWTSYPLTFGAGTKLELKR |
